The target of experiment [1] is human complement component C5 (purified) (human) (UniProt P01031). As to the kind of experiment: plate-bound C4, C5 20 µg/ml with 5G1.1 Fab 20 µg/ml, bound C5 detected with N19/8; competitor C4.
For experiment [2] the target is unchanged. Kind of experiment: plate-bound C3, C5 20 µg/ml with 5G1.1 Fab 20 µg/ml, bound C5 detected with N19/8; competitor C3.
For experiment [3] the target is unchanged. Kind of experiment: cell-based or functional assay.
Experiment [4] has the same target. Kind of experiment: solution equilibrium with C5, free antibody measured by ELISA (Friguet method), Scatchard analysis. For orientation: An ELISA detects its analyte on a solid surface through an enzyme-linked reagent.

Chain of UniProt P01031 (P01031 19-673 T389I limits assumed, chain 1 of 2): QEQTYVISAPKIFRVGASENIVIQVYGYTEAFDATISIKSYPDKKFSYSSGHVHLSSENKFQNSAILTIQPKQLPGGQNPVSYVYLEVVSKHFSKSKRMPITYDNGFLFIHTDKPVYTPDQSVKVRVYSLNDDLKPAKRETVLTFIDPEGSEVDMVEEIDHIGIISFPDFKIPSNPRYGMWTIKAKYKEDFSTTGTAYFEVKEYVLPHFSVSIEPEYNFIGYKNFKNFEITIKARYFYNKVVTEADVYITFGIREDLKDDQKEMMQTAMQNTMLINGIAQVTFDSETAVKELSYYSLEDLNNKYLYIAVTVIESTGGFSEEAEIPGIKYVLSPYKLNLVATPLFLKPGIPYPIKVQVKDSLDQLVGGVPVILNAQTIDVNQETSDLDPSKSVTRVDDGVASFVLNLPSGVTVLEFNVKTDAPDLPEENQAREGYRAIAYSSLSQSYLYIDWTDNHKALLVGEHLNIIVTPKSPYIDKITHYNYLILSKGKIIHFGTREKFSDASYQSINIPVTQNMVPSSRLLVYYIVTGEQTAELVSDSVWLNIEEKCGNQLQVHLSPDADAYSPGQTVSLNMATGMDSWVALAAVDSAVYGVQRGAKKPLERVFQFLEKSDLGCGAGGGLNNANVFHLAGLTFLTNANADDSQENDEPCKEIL
Chain of UniProt P01031 (P01031 678-1676 V802I limits assumed, chain 2 of 2): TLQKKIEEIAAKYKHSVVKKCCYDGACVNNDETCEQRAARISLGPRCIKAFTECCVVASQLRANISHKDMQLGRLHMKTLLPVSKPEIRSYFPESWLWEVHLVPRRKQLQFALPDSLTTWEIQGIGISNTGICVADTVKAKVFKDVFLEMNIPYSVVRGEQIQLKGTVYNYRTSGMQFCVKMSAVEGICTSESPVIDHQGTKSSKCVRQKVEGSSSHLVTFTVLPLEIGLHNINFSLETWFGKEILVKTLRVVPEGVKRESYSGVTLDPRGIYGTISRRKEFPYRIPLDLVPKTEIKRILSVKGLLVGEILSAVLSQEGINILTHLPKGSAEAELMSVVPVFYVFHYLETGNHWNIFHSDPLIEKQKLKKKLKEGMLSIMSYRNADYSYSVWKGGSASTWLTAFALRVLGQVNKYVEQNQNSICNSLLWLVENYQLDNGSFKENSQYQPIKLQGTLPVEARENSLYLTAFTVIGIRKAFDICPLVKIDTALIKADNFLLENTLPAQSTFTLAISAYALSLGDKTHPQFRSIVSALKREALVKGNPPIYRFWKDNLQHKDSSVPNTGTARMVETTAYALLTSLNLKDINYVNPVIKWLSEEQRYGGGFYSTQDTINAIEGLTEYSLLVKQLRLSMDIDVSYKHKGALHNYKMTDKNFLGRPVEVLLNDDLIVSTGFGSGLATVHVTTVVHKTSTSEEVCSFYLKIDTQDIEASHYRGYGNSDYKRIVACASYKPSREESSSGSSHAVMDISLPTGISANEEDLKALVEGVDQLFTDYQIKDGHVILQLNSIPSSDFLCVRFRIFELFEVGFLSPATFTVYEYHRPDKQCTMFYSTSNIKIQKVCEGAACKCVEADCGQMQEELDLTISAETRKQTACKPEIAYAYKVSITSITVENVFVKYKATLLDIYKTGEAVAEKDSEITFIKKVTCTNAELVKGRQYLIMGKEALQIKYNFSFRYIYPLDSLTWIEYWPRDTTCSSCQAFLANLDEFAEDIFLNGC

Regarding “5G1.1 Fab (derived from 5G1.1 by conventional papain digestion)”, the percent inhibition of C5 binding to C4 in experiment [1] was in the range of 60 to 90%. In experiment [2], the percent inhibition of C5 binding to C3 lay within 60 to 90%. In experiment [3], this substance registered a concentration that completely blocks C5a generation of 0.06 to 0.08 µM and a concentration that completely blocks C5b-9-mediated hemolysis in 20% human serum of 0.06 to 0.08 µM.
What is called Kd is the constant that tells how readily two partners part at equilibrium. The low end stands for higher affinity, the high end for lower affinity. On to “5G1.1 monoclonal antibody (native murine anti-human C5 mAb, produced by hybridoma 5G1.1, ATCC HB-11625)”, for which the Kd in experiment [4] came out at 0.03 nM. In experiment [3], the concentration that blocks serum hemolytic activity, 20% v/v human serum was 6.25 µg/mL; the concentration that completely blocks C5a generation lay in the range of 0.06 to 0.08 µM; the concentration that completely blocks C5b-9-mediated hemolysis in 20% human serum lay within 0.06 to 0.08 µM; the molar ratio at which serum hemolytic activity is blocked, 20% v/v human serum (molar ratio 5G1.1/C5) is 0.5. Moreover, in experiment [3], the serum hemolytic activity (chicken erythrocyte hemolysis assay, human serum) (molar ratio antibody/C5) was 0.5.
Turning to “chimeric N19/8 Fab (N19-8 VL/human kappa constant region and N19-8 VH/human IgG1 Fd)”, the blocking of complement hemolytic activity and of C5a generation in experiment [3] was 50%.
In experiment [3], “m5G1.1 scFv (non-humanized murine 5G1.1 scFv, 5G1.1M1scFv)” showed a concentration that completely blocks C5a generation of 0.15 µM and a concentration that completely blocks C5b-9-mediated hemolysis in 20% human serum of 0.15 µM.

The record behind these values is patent US6355245.
